In patent publication US20170218081A1:

Target: Bovine submaxillary mucin (bovine)
Assay: SPR, BSM immobilised on CM5 chip

CC49.scFv
Kd: 30 nM
